Test results from patent publication US20200171068A1, “COMPOSITIONS COMPRISING APTAMERS AND NUCLEIC ACID PAYLOADS AND METHODS OF USING THE SAME” (Children's National Medical Center, priority 2017, published 2020).

Key:
[1] = Plasma levels and in vivo imaging of miR-26a chimera in TUBO tumor-bearing BALB/c mice; parameters: species or system mouse; conditions: 670 pmol single intravenous dose, qPCR
Method: FIG. 8A is a graph showing the pharmacokinetics of plasma levels of miR-26a chimera and the single dose administration in BALB/c mice bearing mouse TUBO breast cancer cell line. miR-26a chimera (670 pmol/20 g) was injected intravenously. Blood samples were collected at the indicated time points. The concentrations of miR-26a were determined by quantitative PCR using standard curve generated with dose-titrated miR-26a chimera. Data were pooled from three experiments, involving a total of 3 mice. FIG. 8B is a series of pictures showing in vivo imaging of miR-26a chimera conjugated with AF647 dye in BALB/c mice bearing tumor with TUBO cell line. A single dose of miR-26a chimera (670 pmol/20 g) was intravenously injected and followed by serial fluorescence imaging at the indicated time points by IVIS spectrum (Caliper LifeSciences, Waltham, Mass.). Data shown are series images from one experiment. Similar data were obtained from another experiment.

TUBO cells = experiment: Binding to TUBO cells by flow cytometry; parameters: species or system mouse; conditions: biotinylated
Method: DNA sequences for anti-human KIT aptamer (21) and mouse c-Kit aptamers (22) conjugated with biotin at 3′ were functionalized by short denaturation-renaturation step (95° C. 10 min, 5 min snap-cooling on ice). These DNA sequences were 5′-[…] […]-3′ (SEQ ID NO: 2) for human KIT, 5′-[…]-3′ (SEQ ID NO:3) for mouse c-Kit. These activated aptamers were used for binding assay to the cell lines by flow cytometry. For chimera preparation, human KIT-aptamer or mouse c-Kit-aptamer miR-26a chimera was assembled by three compartments of DNA/RNA hybrid sequences. The sequences were 5′-[…] […]/C3 (SEQ ID NO:4) spacer/CCUAUUCUGG-3′(SEQ ID NO:5) for human KIT aptamer+the part of passenger sequence for miR-26a-5p, 5′-[…]/C3 (SEQ ID NO:6) spacer/CCUAUUCUGG-3′ (SEQ ID NO:7) for mouse cKit aptamer+the part of passenger sequence for miR-26a-5p, 5′-GUUACUUGCACG/TEG (triethylene glycol)-Cholesterol-3′ (SEQ ID NO:8) for the part of sequence for miR-26a-5p+cholesterol, and 5′-[…]-3′ (SEQ ID NO:9) for guide sequence for miR-26a-5p (RNA sequences were represented as italic). The guide sequence for scramble control was […] (SEQ ID NO:10). To protect the oligonucleotide sequences from nuclease degradation, phosphorothioate bonds were introduced between the last 3 nucleotides at the 5′-end of DNA aptamers. The RNA sequences were modified with 2′-fluoro-uridines. […]

TUBO-derived tumors = experiment: Syngeneic TUBO breast tumor model in BALB/c mice; assay type: in vivo, mouse

B1: miR-26a chimera: mouse c-Kit DNA aptamer-C3-passenger RNA, passenger RNA-TEG-cholesterol and miR-26a-5p guide strand annealed (SEQ ID NO:6/7, 8, 9) (nucleic acid)
chain 1: GCTCAACGCGGGACGGCTCTCCCATTGAC
chain 2: CCUAUUCUGG
chain 3: GUUACUUGCACG
guide: UUCAAGUAAUCCAGGAUAGGCU
modifications: chemistry not fully specified
**Q.** For B1, which “time miR-26a chimera could be detected in the blood after injection” value [1] is on record?
**A.** The value was at most 8 h.

**Q.** And the “binding to TUBO cells” value (TUBO cells)?
**A.** Its value is “nearly identical levels comparable to an anti-c-Kit antibody”.

**Q.** And the “Bak expression among c-Kit+ tumor cells” value (TUBO-derived tumors; 670 pmol/20 g, 3 days)?
**A.** Its value is “not significantly elevated”.

**Q.** What about the “Ezh2 expression among c-Kit+ tumor cells” value (TUBO-derived tumors; 670 pmol/20 g, 3 days) of the same molecule?
**A.** The value was “specific decrease”.

**Q.** And the “miR-26a among c-Kit+ tumor cells” value (TUBO-derived tumors; 3 days after injection, qPCR)?
**A.** Its value is “significant increase”.

**Q.** And the “miR-26a levels in c-Kit+ BM cells” value (TUBO-derived tumors; day 3 after single treatment, qPCR)?
**A.** The value was “selective increase”.

**Q.** What about the “Bak1 expression in c-Kit+ HSPC” value (TUBO-derived tumors; mice that received no 5-FU-treatment) of the same molecule?
**A.** Its value is “not significantly down-regulated”.
